Ends that are not written are not given here.
Target: Stx2a A-subunit (dissociated from recombinant Stx2a) (enterohemorrhagic Escherichia coli …, UniProt P09385 23-319)
Test: AlphaScreen or HTRF
Details: both partners purified

Sequence of Stx2a A-subunit (dissociated from recombinant Stx2a) (P09385 23-319): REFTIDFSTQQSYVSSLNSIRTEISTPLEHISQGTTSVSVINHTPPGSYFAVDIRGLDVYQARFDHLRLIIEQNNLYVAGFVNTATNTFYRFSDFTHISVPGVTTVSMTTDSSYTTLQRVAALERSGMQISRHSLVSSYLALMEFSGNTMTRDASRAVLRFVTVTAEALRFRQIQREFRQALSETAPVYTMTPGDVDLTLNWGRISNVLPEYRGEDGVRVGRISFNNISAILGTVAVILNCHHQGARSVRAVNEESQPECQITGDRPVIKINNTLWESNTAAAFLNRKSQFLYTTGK

RRRRA-NH2 (source: synthetic peptide) [R4A-mono]
IC50: 2700 nM

— publication PMC9259562 (Scientific Reports, 2022)
